For the assay, the target named is wild-type ClbP (Escherichia coli CFT073) (UniProt Q0P7K6). The experiment in a line: cryo-EM structure; single-particle cryo-EM of detergent-solubilised ClbP; 10 mM HEPES pH 7.3, 200 mM NaCl, 0.06% GDN; 3.5 mg/ml; C2 symmetry imposed.

“wild-type ClbP (from UniProt Q0P7K6 1-504) (enzyme)”: the stoichiometry N came out at 2.

The values are drawn from article PMC9889268.
